According to PMC4457907:

Assays:
[1] = target: T1, AtrA (Streptomyces coelicolor) (UniProt Q9KYF2); experiment: EMSA; details: SlbR EMSA: 0.5x TBE pH 8.0, 0.0375% glycerol, 5 mM MgCl2, 1 mM DTT, 7.5 ug salmon sperm DNA in 20 ul, 30 min room temperature; AtrA EMSA: as Uguru et al. 2005 …
T1 sequence: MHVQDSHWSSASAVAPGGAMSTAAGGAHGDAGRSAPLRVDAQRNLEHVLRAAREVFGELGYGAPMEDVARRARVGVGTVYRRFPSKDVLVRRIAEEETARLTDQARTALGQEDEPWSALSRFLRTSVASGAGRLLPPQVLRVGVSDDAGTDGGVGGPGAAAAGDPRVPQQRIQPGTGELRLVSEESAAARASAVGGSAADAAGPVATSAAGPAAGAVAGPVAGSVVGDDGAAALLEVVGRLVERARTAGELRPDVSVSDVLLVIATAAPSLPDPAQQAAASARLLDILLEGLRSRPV

[2] = tested on: AtrA (Streptomyces coelicolor); experiment: EMSA; details: SlbR EMSA: 0.5x TBE pH 8.0, 0.0375% glycerol, 5 mM MgCl2, 1 mM DTT, 7.5 ug salmon sperm DNA in 20 ul, 30 min room temperature, AtrA EMSA: as Uguru et al. 2005 …

Substance: AGCCGCGGGAACCAACGTCGCACGGCATGATCACGCAGGTCAGCGTGGGTGAGTGGGGGTTCGGAGGGGGGCACATCCGGGGCGGGCGCCATCCGTGCTCCGATCGGGGGGCGCTCCGTGCGGAACGTGCCCCTTCTGAATTGACCCCCGCTCAACTATGTTCTTTCCCACGGTGTGTAG (double strand) [SCO4119 promoter probe (179 bp)]
- binding signal [1]: binds more weakly

Substance: GTGAGAGCCGTGGGACACCGGTGGCGGTAACAGGAACCACCGGTTCCCTCGGGCGAGGGAAGTTTCCCGGACGGACCGTCGGTGAGCGGTGACCGACGGTTAGAGTCCGGAACTCCACGCGGGGGCGACTCCGCGAATGGCGCACCCCCCACCCGTGTTCGCCGCACGGGCCGCCACCTCGCGTTCCGGGAGTGATCCTTGGCCACGGCTGACACCGCATTCGCT (double strand) [ssgR promoter probe (224 bp)]
- Kd [1]: 1200 nM

Substance: actII-ORF4 site 2 probe (100 bp)
- Kd ([2]; cited from earlier work): 150 nM

Substance: ssgR promoter probe (224 bp)
- Kd ([2]; apparent Kd', 5 nM probe): 1200 nM
